Columns and labels:
Test in all cases: ITC
[1] = biological target: Kj12B-^CDD_(short) peptide G1566A (printed as G1565 replaced with alanine) (Xenorhabdus stockiae KJ12.1)
[2] = biological target: Kj12B-^CDD_(short) peptide L1564A (Xenorhabdus stockiae KJ12.1, L1564A (stands in the printed letters))
[3] = biological target: Kj12B-CDDshort R1565E peptide (Xenorhabdus stockiae KJ12.1, R1565E (stands in the printed letters))
[4] = biological target: T1, Kj12C-^NDD Q26K, E28A (modified Kj12C-^NDD) (Xenorhabdus stockiae KJ12.1)
T1 chain: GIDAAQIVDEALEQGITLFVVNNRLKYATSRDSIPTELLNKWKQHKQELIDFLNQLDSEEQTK

[5] = biological target: Kj12A-^CDD peptide (C-terminal docking domain of Kj12A) (Xenorhabdus stockiae KJ12.1)

B1: Kj12C-^NDD (N-terminal docking domain of Kj12C) (domain or fragment)
chain: GIDAAQIVDEALEQGITLFVVNNRLQYETSRDSIPTELLNKWKQHKQELIDFLNQLDSEEQTK
Kd [1]: > 100 µM | Kd [2]: > 100 µM | Kd [3]: > 100 µM

B2: Kj12B-^CDD peptide (C-terminal docking domain of Kj12B) (peptide)
peptide: LLKEKRKHFQAEQNSSQEYLRGEI
modifications: Limits taken from PDB 6EWU (isolated NDD). Residue 1 is Gly as in the entity, possibly a SUMO-cleavage/cloning replacement of the native Met. In vivo, the variant was in full-length Kj12C.
Kd [4]: 80 µM

B3: Kj12A-^NDD (N-terminal docking domain of Kj12A) (domain or fragment)
chain: MKNAAQIVDEALNQGITLFVADNRLQYETSRDNIPEELLNEWKYYRQDLIDFLQQLDAKEETQ
Kd [5]: > 100 µM

B4: Kj12B-^NDD (N-terminal docking domain of Kj12B) (domain or fragment)
chain: MKNAAKIVNEALNQGITLFVSDNKLKYKTNRDSIPSELLEEWKQHKQELIDFLTQLESEEES
Kd [5]: > 100 µM

From PMC6195595 (2018)
